B1: VH:VL chains; a variant is named by its letters at X, in order (parent)
chain 1: QVQLVQSGAEVKKPGASVKVSCKASGYTFTDYXMHWVRQAPGQGLEWMGXVNPNXXXTTYNQKFEGRVTMTTDTSTSTAYMELRSLRSDDTAVYYCARXNXLDXWGQGTTVTVSS
chain 2: DIQMTQSPSSLSASVGDRVTITCSVSSSVSSIYLHWYQQKPGKAPKLLIYSTSNLASGVPSRFSGSGSGTDFTLTISSLQPEDFATYYCQVYSGYPLTFGGGTKVEIK

Variants of: B1
Assay: yeast display scFab, FACS + sequencing
In short: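 Heavy-chain CDR mutant scFab yeast surface library, FACS-sorted after labelling with biotinylated ovalbumin (260 μg/mL in PBSB, 3 h, room temperature) or soluble membrane proteins (130 μg/mL, 20 min on ice), plus anti-Myc. Gates collected the top 25% and bottom 10% of binders, and samples from two replicates were deep sequenced. Non-specific binding call: a sequence was positive if found in ≥3 of 4 positive samples (membrane protein and ovalbumin pooled) and no negatives, and negative by the converse rule.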

Variant | non-specific binding call
VKREAVGV | binds
YKKRGAGV | binds
VKGRSDWV | no binding
YKKRGAWS | binds
YKGRGSVD | binds
YKGRGSVY | binds
FKRKAAAA | binds
VKRGSSAA | binds
FKGRGSSS | binds
AKGRGDGA | no binding
SKKEDSAD | no binding
VKGRGFAA | binds
YKKGAAGF | binds
YKRGSDGA | binds
YKRGDSGF | no binding
YKRGDASS | no binding
FKKGSSAA | binds
VKKESSGF | binds
FKKGSVGD | binds
FKGTDSSD | binds
VKGRGSGS | binds
VKGRGASV | binds
FKRAGSLA | binds
VKKESDSY | no binding
YKRRDAWV | binds

Variant | non-specific binding call
YKGRGFAY | binds
FKKGSYVF | binds
YKRRGSAA | binds
VKGTDAWY | no binding
VKGRGDAA | no binding
YKKTGYWV | binds
DKGRGSSA | no binding
FKGRGFVV | binds
YKRESAGY | binds
SKRKSSGA | binds
VKGRGSWS | binds
VKGRGSWY | binds
VKGRGSWA | binds
YKRGGSWD | binds
YKKGGSGV | binds
YKGRGAVS | binds
YKRGDAVF | no binding
FKKGSSLD | binds
VKGRGVVD | binds
YKGRGFSD | binds
YKRRDFGV | binds
DKRKGVAF | binds
YKRGASVA | binds
FKRGDAGD | binds
YKGRGDWY | binds

Variant | non-specific binding call
YKKESDSY | no binding
SKRRGSLS | binds
YKGRGDGY | binds
YKGRGDGD | no binding
VKRGSAAV | binds
VKRGSAAA | binds
SKGRSSWS | binds
SKGRSDAV | no binding
SKGRGAWD | binds
SKGRGAWV | binds
FKRKNSAA | binds
VKGRGFWY | binds
YKRGGAGS | binds
VKRGSFVD | binds
YKRGDAWD | no binding
YKRGDAWA | no binding
YKRESSSV | binds
FKKGSSGV | binds
FKKGSSGD | binds
YKGRGFGD | binds
VKGRTSVY | no binding
YKRGASLA | binds
AKRGAFAD | binds
VKGRGAWY | binds
VKGRGAWA | binds

Variant | non-specific binding call
YKRGDSSS | no binding
VKGRGSLF | binds
DKKEDSAD | no binding
DKKKDVVF | binds
VKGRSFLV | binds
YKRRDASD | binds
FKKGSAVA | binds
FKKGSAVV | binds
VKRATSWD | binds
VKKGSSLF | binds
YKGRGVGD | binds
YKGRGVGV | binds
YKGRGVGY | binds
YKGRGVGA | binds
VKKTGSGA | binds
SKGRSDVV | no binding
SKGRSDVF | no binding
SKGRSDVS | no binding
SKGRSDVY | no binding
YKGRGYAA | binds
YKGRGYAD | binds
YKGRGYAV | binds
YKGRSSSS | binds
YKRGGAVV | binds
YKRRDAVY | binds

Variant | non-specific binding call
FKGRGDGS | binds
SKKTGSVD | no binding
VKGRGSAD | binds
VKGRGSAY | binds
VKGRGSAA | binds
VKKEDDVV | no binding
YKGRSAVY | binds
YKRGDAGY | no binding
VKRGSSSD | binds
SKGRGSAA | binds
SKKRGSGA | binds
DKGRSAGD | no binding
YKGRGFWA | binds
YKRGGSSY | no binding
DKREADVA | no binding
YKGRGYLV | no binding
YKRGSSGF | binds
YKRGSSGA | binds
YKRGSSGD | binds
AKGTASGD | binds
VKGRGSVF | no binding
SKKTGDLY | no binding
SKGRSDGA | no binding
SKGRSDGV | no binding
YKRESAAV | binds

— the emibetuzumab library of Makowski et al. (2022)
